Reference: paper PMC3458555 (Nucleic Acids Research, 2012)
Where two headings read alike, the source gives them in different places. Blank lines part the entries; values can stand above or below the molecule they belong to.

Legend:
[1] = molecular target: Zfp206SCAN–Zfp110SCAN ΔH1 fusion protein (not stated | mouse) (UniProt Q3URR7); test: SEC
[2] = molecular target: Zfp206SCANΔH1–Zfp110SCAN fusion protein (not stated | mouse) (UniProt Q3URR7); test: SEC
[3] = molecular target: the molecule itself; test: SEC
[4] = molecular target: the molecule itself; test: SEC; remark: listed apart in the source
[5] = molecular target: the molecule itself

stoichiometry N [1]: 2
Molecule: Zfp206SCAN–Zfp110SCAN ΔH1 fusion protein (from UniProt Q3URR7 36-128)

stoichiometry N [2]: 2
Molecule: Zfp206SCANΔH1–Zfp110SCAN fusion protein (from UniProt Q3URR7 36-128)

B1: Zfp110SCAN (SCAN domain of Zfp110) (domain or fragment, mouse, UniProt A0A0R4J249 154-247, looked up)
chain: RLTDTEASRQKFRHFQYEESAGPQKAMSQLRKLCHQWLQPNTRSKKQILELLVLEQFLNALPEKFRVWVESQHPEDCKAVVALLENMTSVSKDD
stoichiometry N [3]: 2

B2: Zfp206SCAN–ZNF174SCAN fusion protein (other)
chain: RPRPEVAHQLFRCFQYQEDMGPRASLGRLRELCNHWLRPALHTKKQILELLVLEQFLSVLPPHVLSRLHGQPLRDGEEVVQLLEGVPRDISHMRQGFRHFCYQEVSGPQEALSCLQQLCRQWLQPELHTKEQILELLVMEQFLVILPPEIQAQVWHRYPKSSREIVTLVEDLHR
stoichiometry N [4]: 2

B3: Zfp206SCAN (SCAN domain of Zfp206, tag-free) (domain or fragment)
chain: GRPRPEVAHQLFRCFQYQEDMGPRASLGRLRELCNHWLRPALHTKKQILELLVLEQFLSVLPPHVLSRLHGAPLRDGEEVAQLEGVPRDISHM
stoichiometry N [3]: 2

B4: MBP-Zfp206SCAN (domain or fragment)
chain: GRPRPEVAHQLFRCFQYQEDMGPRASLGRLRELCNHWLRPALHTKKQILELLVLEQFLSVLPPHVLSRLHGAPLRDGEEVAQLEGVPRDISHM
stoichiometry N [5]: 2
